Publication PMC7278358, “Kinetic parameters of human aspartate/asparagine–β-hydroxylase suggest that it has a possible function in oxygen sensing” (The Journal of Biological Chemistry, 2020)
Several values for one entry are separate records, joined by “and”; a condition that tells them apart may be missing. Equal values may be shown once. Read-outs that look alike come from different tables or passages of the source. One block for each molecule: values may come before it. Positions of bridges follow the written chain, without caps; N, C: chain ends. Non-standard residues stand in square brackets, D forms with d. No end group written: not given here.

Tests used:
human His6–AspH315–758 [1] = molecular target: T1, human His6–AspH315–758 (Homo sapiens, UniProt Q12797); experiment: AspH steady-state kinetics from initial hydroxylation rates (SPE-MS, Michaelis–Menten); format: biochemical
T1 construct: a pET-28a(+) vector encoding for N-terminal His6-tagged AspH315–758 (His6–AspH315–758) was transformed into Escherichia coli BL21 (DE3) cells; made in house; host or cells: Escherichia coli BL21 (DE3)
T1 sequence (Q12797 315-758): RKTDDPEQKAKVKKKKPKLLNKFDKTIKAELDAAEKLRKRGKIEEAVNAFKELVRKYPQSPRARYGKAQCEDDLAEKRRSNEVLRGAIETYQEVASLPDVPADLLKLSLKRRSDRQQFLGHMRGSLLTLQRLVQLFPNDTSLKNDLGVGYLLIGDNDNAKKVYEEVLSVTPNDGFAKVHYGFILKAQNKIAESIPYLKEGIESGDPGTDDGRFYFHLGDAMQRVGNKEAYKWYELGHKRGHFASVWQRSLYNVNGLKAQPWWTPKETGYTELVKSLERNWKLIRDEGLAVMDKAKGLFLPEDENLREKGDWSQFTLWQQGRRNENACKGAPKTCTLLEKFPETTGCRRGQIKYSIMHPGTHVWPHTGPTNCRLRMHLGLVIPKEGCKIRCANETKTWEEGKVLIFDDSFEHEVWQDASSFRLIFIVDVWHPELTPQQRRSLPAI
Description: (§1) The reactions were monitored with a rate of 1 sample/25 s using the same SPE-MS configuration as described above. The data were analyzed as described above, and the slopes of the initial reaction rates (Fig. S6) were fitted to a Michaelis-Menten plot using nonlinear regression (GraphPad Prism 5). […] The reactions were monitored by SPE-MS with a rate of 1 sample/25 s using identical configurations as before. The data were analyzed as described, and the slopes of the initial reaction rates (Fig. […] The Morrison equation is as follows, where I is the inhibitor concentration, Ki is the dissociation constant of the inhibitor, ET is the total concentration of active enzyme, and vi/v0 is the fractional enzyme activity ([94]).

[2] = test system: human 2OG oxygenases, including the PHDs and FIH; details: read-out: 2OG Km app, most other human 2OG oxygenases; cited from earlier work
bovine AspH = test system: bovine AspH; parameters: method as in PMID 2187868; details: cited from earlier work
[3] = molecular target: T2, His6–AspH_(315–758) (human) (UniProt Q12797)
T2 sequence: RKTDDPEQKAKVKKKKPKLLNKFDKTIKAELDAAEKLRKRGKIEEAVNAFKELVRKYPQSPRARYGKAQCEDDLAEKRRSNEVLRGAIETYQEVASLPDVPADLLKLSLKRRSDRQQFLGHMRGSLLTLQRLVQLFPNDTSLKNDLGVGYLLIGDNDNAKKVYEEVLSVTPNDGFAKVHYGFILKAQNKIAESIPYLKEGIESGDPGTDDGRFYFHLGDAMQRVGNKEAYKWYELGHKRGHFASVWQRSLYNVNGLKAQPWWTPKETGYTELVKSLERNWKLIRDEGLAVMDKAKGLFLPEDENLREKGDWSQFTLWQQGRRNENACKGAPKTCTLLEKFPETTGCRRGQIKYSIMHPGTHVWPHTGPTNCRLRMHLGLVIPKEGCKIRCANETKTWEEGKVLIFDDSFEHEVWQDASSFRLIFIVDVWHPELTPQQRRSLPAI

[4] = molecular target: T2, His6–AspH_(315–758) (human); remark: listed apart in the source
human His6–AspH315–758 [5] = molecular target: T1, human His6–AspH315–758; experiment: AspH activity assay: SPE-MS time course of peptide hydroxylation; format: biochemical; details: 0.1 μM His6–AspH315–758, 2.0 μM peptide, 100 μM LAA, 10 μM FAS, 10 μM 2OG, 50 mM HEPES pH 7.5, 20 °C
Description: The substrate mixture (1.0 ml) containing 2.4 μM peptide, 120 μM LAA, 12 μM FAS, and 12 μM 2OG in 50 mM HEPES buffer (pH 7.5) was added into a well of a 2-ml volume 96-well assay plate (Greiner) at 20 °C under an ambient atmosphere. A blank sample was analyzed using a RapidFire RF 360 high-throughput sampling robot (Agilent) attached to an Agilent 6530 accurate mass quadrupole TOF mass spectrometer operated in the positive ionization mode. The enzyme mixture (0.2 ml), containing 0.6 μM His6–AspH315–758 in 50 mM HEPES buffer (pH 7.5), was then added to the well and thoroughly mixed. The RapidFire sampling robot was programmed to analyze 1 sample/min. The following SPE-MS conditions were used: assay samples were aspirated under vacuum for 0.4 s and loaded onto a C4 SPE cartridge. After loading, the C4 SPE cartridge was washed with 0.1% (v/v) aqueous formic acid to remove nonvolatile buffer salts (5 s, 1.5 ml/min). The peptide was then eluted from the SPE cartridge with 0.1% (v/v) aqueous formic acid in 85/15 (v/v) acetonitrile/water into the mass spectrometer (5 s, 1.25 ml/min). The SPE cartridge was re-equilibrated with 0.1% (v/v) aqueous formic acid (1 s, 1.25 ml/min). The mass spectrometer parameters were capillary voltage (3500 V), fragmentor voltage (150 V), gas temperature (350 °C), gas flow (12 liters/min). The m/z + 2 charge states of the substrate peptide and the product (hydroxylated) peptide were used to extract ion chromatogram data; peak areas were integrated using RapidFire Integrator software (Agilent). The data were exported into Microsoft Excel and used to calculate the percentage of conversion of the hydroxylation reaction using the equation: % conversion = 100 × (integral product peptide)/(integral substrate peptide + integral product peptide).

[6] = substrate: O=C1O[C@H]([C@@H](O)CO)C(O)=C1O; experiment: AspH steady-state kinetics from initial hydroxylation rates (SPE-MS, Michaelis–Menten); format: biochemical, human; details: other: LAA varied; 50 μM FAS, 50 μM 2OG; hFX–CP101–119 substrate; n = 3; pH 7.5; 20.0 °C
Description: as §1

[7] = 2OG varied, 50 μM FAS, hFX–CP101–119 substrate, n = 3
[8] = Fe(II) varied, in the absence of LAA, 50 μM 2OG, hFX–CP101–119 substrate, n = 3
[9] = Fe(II) varied, in the presence of LAA (100 μM), 50 μM 2OG, hFX–CP101–119 substrate, n = 3

Molecule: O=C(O)CCC(=O)C(=O)O [2OG, 2-oxoglutarate]
kcat (human His6–AspH315–758 [1]; [7]): 0.19 ± 0.03 s⁻¹
kcat/Km (human His6–AspH315–758 [1]; [7]): 320000 ± 70000 M⁻¹ s⁻¹
vmax app (human His6–AspH315–758 [1]; 2OG varied, 50 μM FAS, monitoring hydroxylation of hFX–CP101–119, pH 7.5, 20 °C, n = 3): 0.0168 ± 0.0005 µM/s
Km (human His6–AspH315–758 [1]; 2OG varied, 50 μM FAS, monitoring hydroxylation of hFX–CP101–119, pH 7.5, 20 °C, n = 3, read-out: Km app): ~0.6 µM and 0.6 µM
Km [2]: 1 to 25 µM
Km (bovine AspH; read-out: 2OG Km app): ~5 µM

vmax app (human His6–AspH315–758 [1]; Fe(II) (FAS) varied, in the absence of LAA, 50 μM 2OG, monitoring hydroxylation of hFX–CP101–119, pH 7.5, 20 °C, n = 3): 0.0168 ± 0.0004 µM/s
Km (human His6–AspH315–758 [1]; Fe(II) (FAS) varied, in the absence of LAA, 50 μM 2OG, monitoring hydroxylation of hFX–CP101–119, pH 7.5, 20 °C, n = 3, read-out: Km app): 4.76 ± 0.48 µM
vmax app (human His6–AspH315–758 [1]; Fe(II) (FAS) varied, in the presence of LAA (100 μM), 50 μM 2OG, monitoring hydroxylation of hFX–CP101–119, pH 7.5, 20 °C, n = 3): 0.0171 ± 0.0005 µM/s
Km (human His6–AspH315–758 [1]; Fe(II) (FAS) varied, in the presence of LAA (100 μM), 50 μM 2OG, monitoring hydroxylation of hFX–CP101–119, pH 7.5, 20 °C, n = 3, read-out: Km app): 1.42 ± 0.16 µM
kcat (human His6–AspH315–758 [1]; [8]): 0.19 ± 0.03 s⁻¹
kcat/Km (human His6–AspH315–758 [1]; [8]): 40000 ± 10000 M⁻¹ s⁻¹
kcat (human His6–AspH315–758 [1]; [9]): 0.19 ± 0.03 s⁻¹
kcat/Km (human His6–AspH315–758 [1]; [9]): 130000 ± 30000 M⁻¹ s⁻¹
Molecule: ammonium iron(II) sulfate hexahydrate [Fe(II)]
Km (bovine AspH; read-out: Km app for Fe(II)): 3 µM

Km of AspH for the peptide substrate (steady-state kinetics of peptide hydroxylation, SPE-MS, 50 mM HEPES pH 7.5, 20 °C) [3]: 3 μM
Molecule: hC1r–CP_(165–183) (from UniProt P00736 165-183) (peptide)

Km of AspH for the peptide substrate (steady-state kinetics of peptide hydroxylation, SPE-MS, 50 mM HEPES pH 7.5, 20 °C) [3]: 36.5 μM
Molecule: hC1s–CP_(147–165) (from UniProt P09871 147-165) (peptide)

hydroxylation of the peptide by AspH (SPE-MS), t = 15 min to 200 min [4]: < 1%
Molecule: hFXII–CP_(110–128) (from UniProt P00748 110-128) (peptide)

time to complete hydroxylation (human His6–AspH315–758 [5]; SPE-MS): 7 min
Hydroxylation t = 15 min (human His6–AspH315–758 [5]; % conversion by SPE-MS): >95%
Hydroxylation t = 200 min (human His6–AspH315–758 [5]; % conversion by SPE-MS): >95%
Hydroxylation t = 15 min (human His6–AspH315–758 [5]; % conversion by SPE-MS, listed as hFX-CP101-119): > 95%
vmax (human His6–AspH315–758 [1]; peptide as varied substrate, 0.1 μM His6–AspH315–758, 100 μM LAA, 20 μM FAS, 20 μM 2OG, 50 mM HEPES pH 7.5, 20 °C, SPE-MS, mean ± S.D., n = 3): 0.0178 ± 0.0013 µM/s
Km (human His6–AspH315–758 [1]; peptide as varied substrate, 0.1 μM His6–AspH315–758, 100 μM LAA, 20 μM FAS, 20 μM 2OG, 50 mM HEPES pH 7.5, 20 °C, SPE-MS, mean ± S.D., n = 3, read-out: Km): 1.19 ± 0.26 µM
kcat/Km (human His6–AspH315–758 [1]; peptide as varied substrate, 100 μM LAA, 20 μM FAS, 20 μM 2OG, pH 7.5, 20 °C, mean ± S.D., n = 3): 170000 ± 50000 M⁻¹ s⁻¹
kcat (human His6–AspH315–758 [1]; peptide as varied substrate, based on active enzyme 90.8 nM (2,4-PDCA titration), 100 μM LAA, 20 μM FAS, 20 μM 2OG, pH 7.5, 20 °C, mean ± S.D., n = 3): 0.20 ± 0.03 s⁻¹
Molecule: hFX–CP101–119: thioether-linked cyclic peptide of hFX amino acids 101–119, Cys110 thiol linked to N-terminal chloroacetyl group, C-terminal amide ({CH2CO}-[dA]KDGLGEYTCTSLEGFEGK-NH2; thioether N-10; SMILES CC(C)C[C@@H]1NC(=O)CNC(=O)[C@H](CC(=O)O)NC(=O)[C@H](CCCCN)NC(=O)[C@@H](C)NC(=O)CSC[C@@H](C(=O)N[C@H](C(=O)N[C@@H](CO)C(=O)N[C@@H](CC(C)C)C(=O)N[C@@H](CCC(=O)O)C(=O)NCC(=O)N[C@@H](Cc2ccccc2)C(=O)N[C@@H](CCC(=O)O)C(=O)NCC(=O)N[C@@H](CCCCN)C(N)=O)[C@@H](C)O)NC(=O)[C@H]([C@@H](C)O)NC(=O)[C@H](Cc2ccc(O)cc2)NC(=O)[C@H](CCC(=O)O)NC(=O)CNC1=O)
substrate/product inhibition of AspH activity (human His6–AspH315–758 [1]; up to 16 μM hFX–CP101–119): neither hFX–CP101–119 nor its hydroxylated product inhibited AspH activity

Km of AspH for the peptide substrate (steady-state kinetics of peptide hydroxylation, SPE-MS, 50 mM HEPES pH 7.5, 20 °C) [3]: 1.19 μM
Molecule: hFX–CP_(101–119) (from UniProt P00742 101-119) (peptide)

conversion at which hydroxylation slowed (consumption of the noncanonical disulfide isomer) (human His6–AspH315–758 [5]; after 5 min): ~45%
Molecule: hFX–EGFD1_86–124: EGFD1 (amino acids 86–124) of human coagulation factor X (DGDQCETSPCQNQGKCKDGLGEYTCTCLEGFEGKNCELF-NH2; also: mixture of canonical and noncanonical disulfide isomers; UniProt P00742 86-124, looked up, fragment)

Km of AspH for the peptide substrate (steady-state kinetics of peptide hydroxylation, SPE-MS, 50 mM HEPES pH 7.5, 20 °C) [3]: 1.71 μM
Molecule: hProC–CP_(111–129) (from UniProt P04070 111-129) (peptide)

B1: human His6–AspH315–758 (Homo sapiens) (protein)
chain: RKTDDPEQKAKVKKKKPKLLNKFDKTIKAELDAAEKLRKRGKIEEAVNAFKELVRKYPQSPRARYGKAQCEDDLAEKRRSNEVLRGAIETYQEVASLPDVPADLLKLSLKRRSDRQQFLGHMRGSLLTLQRLVQLFPNDTSLKNDLGVGYLLIGDNDNAKKVYEEVLSVTPNDGFAKVHYGFILKAQNKIAESIPYLKEGIESGDPGTDDGRFYFHLGDAMQRVGNKEAYKWYELGHKRGHFASVWQRSLYNVNGLKAQPWWTPKETGYTELVKSLERNWKLIRDEGLAVMDKAKGLFLPEDENLREKGDWSQFTLWQQGRRNENACKGAPKTCTLLEKFPETTGCRRGQIKYSIMHPGTHVWPHTGPTNCRLRMHLGLVIPKEGCKIRCANETKTWEEGKVLIFDDSFEHEVWQDASSFRLIFIVDVWHPELTPQQRRSLPAI
notes: a pET-28a(+) vector encoding for N-terminal His6-tagged AspH315–758 (His6–AspH315–758) was transformed into Escherichia coli BL21 (DE3) cells; made in house; host or cells: Escherichia coli BL21 (DE3)
kcat [6]: 0.16 ± 0.03 s⁻¹
